Measurements reported in publication PMC7367391, “EtMIC3 and its receptors BAG1 and ENDOUL are essential for site-specific invasion of Eimeria tenella in chickens” (Veterinary Research, 2020).

T1: pGEX-6P-1-EtMIC3 recombinant protein (E. tenella, UniProt B6VCV4 1-988)
T1 sequence (looked up): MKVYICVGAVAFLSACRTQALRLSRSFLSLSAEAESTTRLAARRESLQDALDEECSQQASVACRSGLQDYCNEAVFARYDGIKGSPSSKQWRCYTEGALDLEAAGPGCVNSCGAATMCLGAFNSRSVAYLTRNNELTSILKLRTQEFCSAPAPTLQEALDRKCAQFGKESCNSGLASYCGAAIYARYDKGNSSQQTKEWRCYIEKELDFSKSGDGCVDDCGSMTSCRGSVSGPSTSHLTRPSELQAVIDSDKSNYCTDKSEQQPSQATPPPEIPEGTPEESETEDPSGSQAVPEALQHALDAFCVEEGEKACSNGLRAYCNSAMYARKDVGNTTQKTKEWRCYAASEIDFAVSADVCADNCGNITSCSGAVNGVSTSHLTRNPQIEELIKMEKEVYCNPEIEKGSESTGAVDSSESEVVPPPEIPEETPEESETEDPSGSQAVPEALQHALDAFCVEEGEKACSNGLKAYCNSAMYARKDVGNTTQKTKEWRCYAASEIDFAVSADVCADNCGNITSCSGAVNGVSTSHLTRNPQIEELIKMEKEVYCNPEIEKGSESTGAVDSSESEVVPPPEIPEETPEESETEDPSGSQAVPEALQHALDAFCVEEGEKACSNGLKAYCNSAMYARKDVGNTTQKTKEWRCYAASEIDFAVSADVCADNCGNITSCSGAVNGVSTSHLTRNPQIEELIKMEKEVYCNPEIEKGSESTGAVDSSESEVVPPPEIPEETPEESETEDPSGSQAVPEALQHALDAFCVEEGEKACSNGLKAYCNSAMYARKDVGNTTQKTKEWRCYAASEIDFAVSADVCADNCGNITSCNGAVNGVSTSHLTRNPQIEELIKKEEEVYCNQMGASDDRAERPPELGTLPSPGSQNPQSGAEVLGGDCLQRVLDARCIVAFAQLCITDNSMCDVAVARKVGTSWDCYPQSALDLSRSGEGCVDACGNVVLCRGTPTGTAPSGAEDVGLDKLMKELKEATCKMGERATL


Target: T1, pGEX-6P-1-EtMIC3 recombinant protein
Experiment: cell-based or functional assay

Row | Binder | oocyst decrease ratio (%) in chickens challenged with 5 × 10^4 E. tenella sporulated oocysts and injected intravenously with anti-ENDOUL serum every day for 7 days | oocyst decrease ratio (%) in chickens challenged with 5 × 10^4 E. tenella sporulated oocysts and injected intravenously with anti-BAG1 serum every day for 7 days
1 | recombinant ENDOUL expressed from pET-32a-ENDOUL (natural protein, chicken, UniProt A0A8V0YKR0 1-289, looked up) MADRKALNHELSKLFNEMWDMDVNRFTPGKDYAIELQGKADAVLQGDSVVQDSAARHLFHYVNEERLKNIKTFATFISLLDNYETSTGVEEIVTPEEIAENNCFLDAILMTGVMKLAHEYLLKKKLAKPNLADFKYQLYDIWFQLYPRKEGDRPDSCGFEHVFVGETRRGKQILGLHNWVQFYLQEKHKQIDYKGYIARKNKTRPDRDDQVLSIQFSWKGSVKPIGSTFIGVSPEFEFALYTVIFLLSEERVTRKTVKIEEYELQIVVCRHGRHIGTAYPVLLNTSNED | 5.07% | 
2 | recombinant BAG1 expressed from pET-32a-BAG1 (natural protein, chicken, UniProt F1NPL0 1-209, looked up) MAVPGAPVSVTVTYSNEKHNIQVASQQEDGEPTLQDMAVLIEQVTGVPVSFQKLIYKGKSLKELEQPLSALGVKNGCKVMLIGKRNSPEEEAELKKLKDLEKSVEQIANKLEEVNKEFTSIQKGFLAKDLQAEALKQLDKRIKGTAEQFMKILEQVDAINLPENFNDCRLKKKGLVKRVQAFLAQCDTVEGNIGQEMDKLQSKNLALAE |  | 3.63%
